The results in this text go back to PMC7857489, “Degradation of MinD oscillator complexes by Escherichia coli ClpXP” (The Journal of Biological Chemistry, 2020).

Assay [1] addresses T1, ClpX (E. coli, UniProt P0A6H1 1-424).
T1 construct: ClpX, AAA+ unfoldase of Escherichia coli; concentrations are reported as ClpX hexamers; Purified as a native protein by earlier published methods; also called wildtype ClpX; source: E. coli BL21 (λDE3), overexpressed from a plasmid, purified as native protein
Briefly: negative-stain transmission electron microscopy; MinC (4 μM), MinD or MinD(R3E) (8 μM), ATP (8 mM), with or without ClpXP, or ClpXP with ATP alone, in copolymer assembly buffer; carbon/formvar grids, fixed with glutaraldehyde, stained with uranyl acetate. To be noted: both partners purified.

Assay [2] concerns the target T2, MinD(R3E) (E. coli, UniProt P0AEZ3 1-270, R3E).
T2 construct: MinD of Escherichia coli with Arg 3 changed to glutamate by site-directed mutagenesis; Same construct as m1 apart from R3E; source: E. coli BL21 (λDE3), overexpressed from a plasmid (pEt-MinD(R3E)), purified
T2 sequence (looked up): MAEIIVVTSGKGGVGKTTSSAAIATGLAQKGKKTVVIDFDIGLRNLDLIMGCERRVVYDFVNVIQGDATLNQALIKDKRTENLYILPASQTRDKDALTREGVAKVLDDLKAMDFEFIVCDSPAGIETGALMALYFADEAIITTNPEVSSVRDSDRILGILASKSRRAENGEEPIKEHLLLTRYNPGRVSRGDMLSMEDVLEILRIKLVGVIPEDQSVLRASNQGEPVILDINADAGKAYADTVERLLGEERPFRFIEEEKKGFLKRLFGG
Briefly: 90° light scatter; MinC (4 μM) and MinD or MinD(R3E) (8 μM) in 20 mM MES pH 6.5, 100 mM KCl, 10 mM MgCl2; after 5 min ATP added alone or with ClpX (0.75 μM), ClpX(E185Q) (0.75 μM), ClpP (0.9 μM) or ClpX and ClpP, with an ATP-regenerating system; monitored for 30 min more. To be noted: both partners purified.

B1: ClpP (enzyme)
chain: not shown
notes: ClpP, serine protease of Escherichia coli; concentrations are reported as ClpP tetradecamers; Purified as a native protein by earlier published methods; source: E. coli BL21 (λDE3), overexpressed from a plasmid, purified as native protein; copies: 14
As for B1, the binding result in assay [1] was “binds”.

B2: MinC (natural protein, E. coli, UniProt P18196 1-231, looked up)
chain: MSNTPIELKGSSFTLSVVHLHEAEPKVIHQALEDKIAQAPAFLKHAPVVLNVSALEDPVNWSAMHKAVSATGLRVIGVSGCKDAQLKAEIEKMGLPILTEGKEKAPRPAPTPQAPAQNTTPVTKTRLIDTPVRSGQRIYAPQCDLIVTSHVSAGAELIADGNIHVYGMMRGRALAGASGDRETQIFCTNLMAELVSIAGEYWLSDQIPAEFYGKAARLQLVENALTVQPLN
notes: concentrations are reported as MinC dimers; Purified as a native protein by earlier published methods; source: E. coli BL21 (λDE3), overexpressed from a plasmid (pEt-MinC), purified as native protein
Consider B2, for which, in assay [2], the binding result is “binds”.
